In PMC3728920, “In situ structural analysis of the Yersinia enterocolitica injectisome” (eLife, 2013):

Target: the molecule itself
Experiment: cryo-EM structure; cryo-electron tomography and sub-volume averaging (~3 nm) of purified YscC (0.2 mg/ml) reconstituted into liposomes of E. coli polar lipids at 5:1 lipid-to-protein ratio; oligomers isolated beforehand in DDM by sucrose gradient, MonoQ and Superose 6 gel filtration

B1: YscC (outer membrane secretin of the Yersinia enterocolitica injectisome) (natural protein)
chain: QELDWLPIPYVYVAKGESLRDLLTDFGANYDATVVVSDKINDKVSGQFEHDNPQDFLQHIASLYNLVWYYDGNVLYIFKNSEVASRLIRLQESEAAELKQALQRSGIWEPRFGWRPDASNRLVYVSGPPRYLELVEQTAAALEQQTQIRSEKTGALAIEIFPLKYASASDRTIHYRDDEVAAPGVATILQRVLSDATIQQVTVDNQRIPQAATRASAQARVEADPSLNAIIVRDSPERMPMYQRLIHALDKPSARIEVALSIVDINADQLTELGVDWRVGIRTGNNHQVVIKTTGDQSNIASNGALGSLVDARGLDYLLARVNLLENEGSAQVVSRPTLLTQENAQAVIDHSETYYVKVTGKEVAELKGITYGTMLRMTPRVLTQGDKSEISLNLHIEDGNQKPNSSGIEGIPTISRTVVDTVARVGHGQSLIIGGIYRDELSVALSKVPLLGDIPYIGALFRRKSELTRRTVRLFIIEPRIIDEGIAHHLALGNGQDLRTGILTVDEISNQSTTLNKLLGGSQCQPLNKAQEVQKWLSQNNKSSYLTQCKMDKSLGWRVVEGACTPAQSWCVSAPKRGVL
notes: YscC, secretin of the Ysc injectisome, Yersinia enterocolitica E40; full-length yscC with a stop codon amplified from the pYVe40 plasmid and cloned into pBAD/mycHisA (pMA6); The signal peptide is probably cut on export (surmise); The introduction cites 12-15 subunits for secretin rings; also called secretin YscC; YscC oligomers
  binding result: binds
